This note sets out measurements from patent publication US8034904B2, “Anti-IGF-I receptor antibody” (Immunogen Inc., priority 2002, dated 2011).

Assay [1] relates to RD (rhabdomyocarcoma) cells. The experiment in a line: Growth and survival of RD cells (MTT assay). Format: cell-based, human. As to the method:
(§1) Several human tumor cell lines were tested in serum-free conditions for their growth and survival response to IGF-I. These cell lines were treated with EM164 antibody in the presence of IGF-I, IGF-II, or serum, and their growth and survival responses were measured using an MTT assay after 2-4 days. Approximately 1500 cells were plated in a 96-well plate in regular medium with serum, which was replaced with serum-free medium the following day (either serum-free RPMI medium supplemented with transferrin and BSA, or phenol-red free medium as specified by Dufourny, B. et al., 1997, J. Biol. Chem., 272, 31163-31171). After one day of growth in serum-free medium, the cells were incubated with about 75 μL of 10 μg/mL antibody for 30 min.-3 h, followed by the addition of 25 μL of IGF-I (or IGF-II or serum) solution to obtain a final concentration of 10 ng/mL IGF-I, or 20 ng/mL IGF-II, or 0.04-10% serum. In some experiments, the cells were stimulated first with IGF-I for 15 min before the addition of EM164 antibody, or both IGF-I and EM164 antibody were added together. The cells were then allowed to grow for another 2-3 days. A solution of MTT (3-(4,5)-dimethylthiazol-2-yl)-2,5-diphenyltetrazolium bromide; 25 μL of a 5 mg/mL solution in PBS) was then added and the cells were returned to the incubator for 2-3 h. The medium was then removed and replaced by 100 μL DMSO, mixed, and the absorbance of the plate was measured at 545 nm.
(Tetrazolium dyes change colour on reduction, which living cells bring about.)

Assay [2] concerns the target T1, IGF-I receptor of 3T3 cells (Mus musculus, UniProt Q60751).
T1 construct: endogenous in cells; host or cells: 3T3 cells (mouse)
Put plainly: Immunoprecipitation of IGF-I receptor from 3T3 cells. Type of assay: binding. The text has this:
(§2) A Western blot of the EM164 antibody immunoprecipitate was detected using a rabbit polyclonal anti-IGF-I receptor beta chain (C-terminus) antibody (Santa Cruz Biotechnology) and a goat-anti-rabbit-IgG-antibody-horseradish peroxidase conjugate, followed by washes and enhanced chemiluminescence (ECL) detection.

For assay [3], the system named is A 431 (epidermoid) cells. Put plainly: Growth and survival of A 431 cells (MTT assay). Format: cell-based, human. As to the method:
as §1

Assay [4] deals with truncated IGF-I receptor alpha chain construct (residues 1-468 fused to 704-719, myc tag). The experiment in a line: Binding to truncated IGF-I receptor alpha chain construct. Set-up: species or system human. The text has this:
The binding domain of EM164 antibody was further characterized using a truncated alpha chain construct, which comprised the cysteine rich domain flanked by L1 and L2 domains (residues 1-468) fused with the 16-mer-C-terminus piece (residues 704-719) and which was terminated by a C-terminus epitope tag. This smaller IGF-I receptor, which lacked residues 469-703, has been reported to bind IGF-I, although less tightly compared to the native full-length IGF-I receptor (Molina, L. et al., 2000, FEBS Letters, 467, 226-230; Kristensen, C. et al., 1999, J. Biol. Chem., 274, 37251-37356). Thus, a truncated IGF-I receptor alpha chain construct was prepared comprising residues 1-468 fused to the C-terminus piece that is residues 704-719 and flanked by a C-terminus myc epitope tag. A stable cell line which expressed this construct, and which also expresses the construct transiently in human embryonic kidney 293T cells, was constructed.

The test system of assay [5] is NCI-H838 (lung) cells. Put plainly: Growth and survival of NCI-H838 cells (MTT assay). Format: cell-based, human. As to the method: as §1
Assay [6] relates to HT-3 (cervical) cells. Put plainly: Growth and survival of HT-3 cells (MTT assay). Type of assay: cell-based, human. As to conditions: 5-10 μg/mL EM164, 10 ng/mL IGF-I. As to the method: as §1, with “A solution of MTT (3-(4,5)-dimethylthiazol-2-yl)-2,5-diphenyltetrazolium bromide; 25 μL of a 5 mg/mL solution in PBS) was then added and the cells were returned to the incubator for 2-3 h.” left out

Assay [7] deals with T2, IGF-I receptor on MCF-7 cells (Homo sapiens, UniProt P08069).
T2 construct: human breast cancer MCF-7 cells, which expressed IGF-I receptor; endogenous in cells; host or cells: MCF-7 human breast cancer cells
Put plainly: IGF-I displacement assay in MCF-7 cells. Format: cell-based. How it is done:
(§3) (or at 4° C.) for 1 to 2 h. […] (or at 4° C.) for 30 min to 4 h. Cells were then washed with PBS and lysed in lysis buffer containing 1% NP-40 at 4° C.

For assay [8], the target named is T3, IGF-I receptor on NCI-H838 cells (Homo sapiens, UniProt P08069).
T3 construct: endogenous in cells; host or cells: NCI-H838 lung cancer cells
The experiment in a line: IGF-I displacement in NCI-H838 lung cancer cells. Type of assay: cell-based. The settings on record: 4° C., 2 h. How it is done:
as §3

Assay [9] deals with T4, SDS-denatured human IGF-I receptor (Homo sapiens, UniProt P08069).
T4 construct: human breast cancer MCF-7 cells, which expressed IGF-I receptor; endogenous in cells; host or cells: MCF-7 human breast cancer cells
Put plainly: Western blot detection of SDS-denatured IGF-I receptor in MCF-7 lysates. Format: binding. The settings on record: lysates from MCF-7 cells.
Excerpt: as §2
For orientation: A western blot detects proteins with antibodies after separation by electrophoresis.

Assay [10] concerns IGF-I receptor from cos-7 cells. Put plainly: Immunoprecipitation of IGF-I receptor from cos-7 cells. Format: binding. The settings on record: cos-7 cells (African green monkey).
Excerpt: as §2

Assay [11] addresses T5, human insulin receptor (Homo sapiens, UniProt P06213).
T5 construct: expressed in transfected cells; host or cells: 3T3-like cells of IGF-I receptor deficient mice
The experiment in a line: FACS binding to cells overexpressing human insulin receptor. As to conditions: EM164 50-100 nM. As to the method:
Incubation of EM164 antibody (50-100 nM) in 100 μL cold FACS buffer (1 mg/mL BSA in Dulbecco's MEM medium) was performed using cells overexpressing IGF-I receptor and using cells overexpressing insulin receptor (2×10^5 cells/mL) in a round-bottom 96-well plate for 1 h. The cells were pelleted by centrifugation and washed with cold FACS buffer by gentle flicking, followed by incubation with goat-anti-mouse-IgG-antibody-FITC conjugate (100 μL; 10 μg/mL in FACS buffer) on ice for 1 h. The cells were pelleted, washed, and resuspended in 120 μL of 1% formaldehyde solution in PBS. The plate was analyzed using a FACSCalibur reader (BD Biosciences).
For orientation: A flow cytometer gives signals particle by particle.

Assay [12] concerns MCF-7 cells. Put plainly: Growth inhibition of MCF-7 cells by counting cells. Type of assay: cell-based, human. The settings on record: 10 μg/mL EM164. How it is done: The growth inhibition of MCF-7 cells by EM164 antibody was measured by counting cells. Thus, in a 12-well plate, about 7500 cells were plated in RPMI medium with 10% FBS, in the presence or absence of 10 μg/mL EM164 antibody. After 5 days of growth, the cell count for the untreated control sample was 20.5×10^4 cells, in contrast to a cell count of only 1.7×10^4 cells for the EM164 antibody-treated sample.

The subject of assay [13] is IGF-I receptor of goat fibroblast cells. Put plainly: Immunoprecipitation of IGF-I receptor from goat fibroblast cells. Type of assay: binding.
Excerpt: as §2

[14] abbreviates: 5-10 μg/mL EM164, 10 ng/mL IGF-I.
The mark [15] stands for this setting: 5-10 μg/mL EM164, MTT or colony formation assay.

T1 sequence (Q60751 31-1373): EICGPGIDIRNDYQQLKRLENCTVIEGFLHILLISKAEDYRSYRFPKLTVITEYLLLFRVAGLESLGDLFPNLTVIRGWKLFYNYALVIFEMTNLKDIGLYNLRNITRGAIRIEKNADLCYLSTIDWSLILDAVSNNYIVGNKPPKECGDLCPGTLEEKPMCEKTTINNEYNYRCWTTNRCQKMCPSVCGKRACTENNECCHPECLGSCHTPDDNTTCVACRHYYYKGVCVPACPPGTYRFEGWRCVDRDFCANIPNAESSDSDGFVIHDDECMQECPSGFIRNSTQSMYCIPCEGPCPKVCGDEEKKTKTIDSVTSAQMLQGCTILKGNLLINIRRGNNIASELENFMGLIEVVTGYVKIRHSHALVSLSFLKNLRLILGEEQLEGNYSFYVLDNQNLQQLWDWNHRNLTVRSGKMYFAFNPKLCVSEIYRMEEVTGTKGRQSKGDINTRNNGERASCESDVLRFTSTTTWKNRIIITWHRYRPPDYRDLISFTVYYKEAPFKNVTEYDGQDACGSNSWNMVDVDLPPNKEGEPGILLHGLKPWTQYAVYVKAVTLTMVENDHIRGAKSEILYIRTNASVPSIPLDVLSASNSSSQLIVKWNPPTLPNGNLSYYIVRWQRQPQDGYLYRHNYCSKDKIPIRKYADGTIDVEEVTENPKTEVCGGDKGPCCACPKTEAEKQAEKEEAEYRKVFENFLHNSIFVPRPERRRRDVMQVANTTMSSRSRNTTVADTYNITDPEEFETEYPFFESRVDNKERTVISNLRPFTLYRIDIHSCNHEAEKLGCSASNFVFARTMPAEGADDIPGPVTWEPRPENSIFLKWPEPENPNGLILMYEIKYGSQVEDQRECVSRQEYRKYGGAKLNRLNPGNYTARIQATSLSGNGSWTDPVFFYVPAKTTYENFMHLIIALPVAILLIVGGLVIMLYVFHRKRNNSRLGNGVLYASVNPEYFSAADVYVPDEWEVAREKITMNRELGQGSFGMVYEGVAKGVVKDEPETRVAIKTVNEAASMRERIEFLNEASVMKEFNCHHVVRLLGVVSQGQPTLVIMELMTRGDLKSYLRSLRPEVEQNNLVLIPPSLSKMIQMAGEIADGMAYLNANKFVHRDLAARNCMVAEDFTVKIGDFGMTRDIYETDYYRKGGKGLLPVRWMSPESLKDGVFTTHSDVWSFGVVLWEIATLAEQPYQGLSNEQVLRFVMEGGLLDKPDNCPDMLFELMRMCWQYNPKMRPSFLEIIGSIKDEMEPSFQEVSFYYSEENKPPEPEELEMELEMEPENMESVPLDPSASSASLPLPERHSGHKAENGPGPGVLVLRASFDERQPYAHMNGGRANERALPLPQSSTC

B1: EM164: murine anti-IGF-I receptor monoclonal antibody, IgG1 with kappa light chain, hybridoma ATCC PTA-4457; heavy SEQ ID NO:7, light SEQ ID NO:8 (antibody)
heavy: QVQLQQSGAELVKPGASVKLSCKASGYTFTSYWMHWVKQRPGQGLEWIGEINPSNGRTNYNEKFKRKATLTVDKSSSTAYMQLSSLTSEDSAVYYFARGRPDYYGSSKWYFDVWGAGTTVTVSS
light: DVLMTQTPLSLPVSLGDQASISCRSSQSIVHSNVNTYLEWYLQKPGQSPKLLIYKVSNRFSGVPDRFSGSGSGTDFTLRISRVEAEDLGIYYCFQGSHVPPTFGGGTKLEIKR
modifications: antibody heavy chain; antibody light chain
Regarding B1, the “Inhibition by EM164 antibody of IGF-I-stimulated growth in serum-free medium” value in assay [1] (setting [14]) was 85-100%; in [3] (setting [14]), 85%; in [5] (NCI-H838 (lung), 5-10 μg/mL EM164, 10 ng/mL IGF-I), 100%; in assay [6], 70-90%. For the same molecule, the “% Inhibition by EM164 antibody of Growth/survival of cells in 1.25-10% serum” value is recorded as “Yes” in assay [1] (setting [15]); “Yes” in assay [3] (setting [15]); 85-90% in assay [5] (NCI-H838 (lung), 5-10 μg/mL EM164). In addition, the “binding to IGF-I receptor (immunoprecipitation)” value in assay [2] was “did not bind”; in assay [10], “also bound”; in assay [13], “did not bind”. Moreover, the “binding to truncated IGF-I receptor alpha chain construct” value in assay [4] is on record as “strong binding”. Moreover, the “inhibition of serum-stimulated growth” value in [5] (NCI-H838 cells) is “greater than 80%”. For the same molecule, the “IGF-1- and serum-stimulated growth and survival of NCI-H838” value in assay [5] (compared to a control anti-B4 antibody, FIG. 9) is listed as “strongly inhibited”. Also, the “displacement of pre-bound biotinylated IGF-I” value is “about 50%” in [7] (4° C., 2 h); 90% in assay [7] (37° C., within 30 min); roughly 100% in assay [7] (37° C., within 4 h). Further, the “decrease in the bound biotin-IGF-I” value in [8] is listed as 80%. Moreover, in [9], the “detection of SDS-denatured human IGF-I receptor in Western blots” value is on record as “did not detect”. Moreover, the “fluorescence shift (FACS)” value in [11] is reported as “insignificant shift”. Moreover, the “cell count after 5 days of growth” value in [12] (RPMI with 10% FBS, about 7500 cells plated, untreated control 20.5×10^4 cells) is on record as 1.7×10^4 cells. The “inhibition of growth of MCF-7 cells” value in assay [12] (in 5 days, 10% FBS) is “about 12 fold”.
